These results are taken from patent US20160228506A1, “Compositions and Formulations for Prevention and Reduction of Tumorigenesis, Cancer Cell Proliferation and Invasion, and Methods of Production and Use Thereof in Cancer Treatment” (PRONUTRIA, INC., priority 2013, published 2016).

B1: R134M: single amino acid mutant of SEQID-00338, substrate binding position 134 (protein, listed as Saccharomyces cerevisiae)
chain: MSSSESIRMVLIGPPGAGKGTQAPNLQERFHAAHLATGDMLRSQIAKGTQLGLEAKKIMDQGGLVSDDIMVNMIKDELTNNPACKNGFILDGFPRTIPQAEKLDQMLKEQGTPLEKAIELKVDDELLVARITGMLIHPASGRSYHKIFNPPKEDMKDDVTGEALVQRSDDNADALKKRLAAYHAQTEPIVDFYKKTGIWAGVDASQPPATVWADILNKLGKD
modifications: source: /note="strain ATCC 204508 / S288c"
B2: R42C: single amino acid mutant of SEQID-00338, position 42 (protein, listed as Saccharomyces cerevisiae)
chain: B1 chain with R42C, M134R
modifications: source: /note="strain ATCC 204508 / S288c"
B3: D91I: single amino acid mutant of SEQID-00338, position 91 (protein, listed as Saccharomyces cerevisiae)
chain: B1 chain with D91I, M134R
modifications: source: /note="strain ATCC 204508 / S288c"
B4: R42I: single amino acid mutant of SEQID-00338, position 42 (protein, listed as Saccharomyces cerevisiae)
chain: B1 chain with R42I, M134R
modifications: source: /note="strain ATCC 204508 / S288c"
B5: R42L: single amino acid mutant of SEQID-00338, position 42 (protein, listed as Saccharomyces cerevisiae)
chain: B1 chain with R42L, M134R
modifications: source: /note="strain ATCC 204508 / S288c"
B6: R42T: single amino acid mutant of SEQID-00338, position 42 (protein, listed as Saccharomyces cerevisiae)
chain: B1 chain with R42T, M134R
modifications: source: /note="strain ATCC 204508 / S288c"
B7: D91F: single amino acid mutant of SEQID-00338, magnesium ion binding site position 91 (protein, listed as Saccharomyces cerevisiae)
chain: B1 chain with D91F, M134R
modifications: source: /note="strain ATCC 204508 / S288c"
B8: R42G: single amino acid mutant of SEQID-00338, position 42 (protein, listed as Saccharomyces cerevisiae)
chain: B1 chain with R42G, M134R
modifications: source: /note="strain ATCC 204508 / S288c"
B9: R42K: single amino acid mutant of SEQID-00338, position 42 (protein, listed as Saccharomyces cerevisiae)
chain: B1 chain with R42K, M134R
modifications: source: /note="strain ATCC 204508 / S288c"
B10: R42Q: single amino acid mutant of SEQID-00338, position 42 (protein, listed as Saccharomyces cerevisiae)
chain: B1 chain with R42Q, M134R
modifications: source: /note="strain ATCC 204508 / S288c"
B11: R134Y: single amino acid mutant of SEQID-00338, substrate binding position 134 (protein, listed as Saccharomyces cerevisiae)
chain: B1 chain with M134Y
modifications: source: /note="strain ATCC 204508 / S288c"
B12: R42A: single amino acid mutant of SEQID-00338, substrate binding position 42 (protein, listed as Saccharomyces cerevisiae)
chain: B1 chain with R42A, M134R
modifications: source: /note="strain ATCC 204508 / S288c"
B13: SEQID-00298 (BS): nutritive polypeptide naturally produced in Cow (protein, listed as Bos taurus)
chain: MGLSDGEWQLVLNAWGKVEADVAGHGQEVLIRLFTGHPETLEKFDKFKHLKTEAEMKASEDLKKHGNTVLTALGGILKKKGHHEAEVKHLAESHANKHKIPVKYLEFISDAIIHVLHAKHPSDFGADAQAAMSKALELFRNDMAAQYKVLGFHG
B14: Reduced and alkylated SEQID-00363: SEQID-00363 with disulfide bonds reduced and alkylated (protein)
chain: ATLDSWLSNEATVARTAILNNIGADGAWVSGADSGIVVASPSTDNPDYFYTWTRDSGLVLKTLVDLFRNGDTSLLSTIENYISAQAIVQGISNPSGDLSSGAGLGEPKFNVDETAYTGSWGRPQRDGPALRATAMIGFGQWLLDNGYTSTATDIVWPLVRNDLSYVAQYWNQTGYDLWEEVNGSSFFTIAVQHRALVEGSAFATAVGSSCSWCDSQAPEILCYLQSFWTGSFILANFDSSRSGKDANTLLGSIHTFDPEAACDDSTFQPCSPRALANHKEVVDSFRSIYTLNDGLSDSEAVAVGRYPEDTYYNGNPWFLCTLAAAEQLYDALYQWDKQGSLEVTDVSLDFFKALYSDAATGTYSSSSSTYSSIVDAVKTFADGFVSIVETHAASNGSMSEQYDKSDGEQLSARDLTWSYAALLTANNRRNSVVPASWGETSASSVPGTCAATSAIGTYSSVTVTSWPSIVATGGTTTTATPTGSGSVTSTSKTTATASKTSTSTSSTSCTTPTAVAVTFDLTATTTYGENIYLVGSISQLGDWETSDGIALSADKYTSSDPLWYVTVTLPAGESFEYKFIRIESDDSVEWESDPNREYTVPQACGTSTATVTDTWR
modifications: disulfides reduced and alkylated; Aspergillus niger
B15: Heat-denatured SEQID-00363: SEQID-00363 30 g/L in 10% PBS rapidly heated to 95° C. (protein)
chain: B14 chain
modifications: heat-denatured; Aspergillus niger

Substitutions are numbered along the chain they refer to. Numbers in names are those of the source.

One data set has as its system SEQID-00338 kinase activity (AMP + ATP→ADP). The experiment in a line: Kinase activity of SEQID-00338 (ADP-Glo Max Assay). It is filed as biochemical. The note with it: 7 μg/mL, 30 minute reaction at 30° C. The protocol:
The ADP-Glo™ Max Assay was obtained from Promega (Catalog number V7001, Madison, Wis.). Adenosine Monophosphate was obtained from Sigma-Aldrich (Catalog number A1752, St. Louis, Mo.). 5× Kinase Buffer was prepared w/ 1.211 g Tris Base (Catalog number BP152-2, Fisher Bioreagents, Pittsburgh, Pa.), 692 μL 12% hydrochloric acid solution (Catalog number BDH3026-500MLP, VWR, Radnor, Pa.), 10.0 mL 500 mM magnesium chloride (Catalog number BP214-500, Fisher Bioreagents, Pittsburgh, Pa.) and the volume brought to 50 mL with MilliQ water and filtered through 0.22 μm PES filter (Catalog number SCGP00525, Millipore, Billerica, Mass.) into a sterile 50 mL tube.
Twelve his-tag purified mutant proteins and the wild-type protein at 35 μg/mL in Tris buffer were serially diluted to 7.0 and 1.4 μg/mL. Prepared kinase reaction mix at 0.5 mM AMP/0.5 mM ATP to test for activity and at 0 mM AMP/0 mM ATP to assay background activity by diluting 5× Kinase Buffer with appropriate volumes of 10 mM AMP and 10 mM ATP in MilliQ water. Duplicate reactions were prepared by mixing 9 μL of the reaction mixture with 6 μL of diluted SEQID-00338, mixing by pipetting up and down and dispensing 5 μL into a 384-well white OptiPlate (PerkinElmer, Waltham, Mass.). An ADP standard curve was prepared by serially diluting 4 mM ADP in MilliQ water and adding kinase buffer to 1× for a standard at 0.0005, 0.001, 0.005, 0.01, 0.05, 0.1, 0.5, 1, 2, 3, and 4 mM ADP. The plate was covered with a foil plate seal and incubated at 30° C. for 30 min. Following the kinase reaction, 5 μL of ADP-Glo™ Reagent was added to each well. The plate was sealed with a foil plate seal and placed on a horizontal plate shaker at 450 rpm for 2 minutes at room temperature. The plate was removed from the plate shaker and incubated at room temperature for 40 minutes. The plate was then centrifuged for 15 seconds at 1109×rcf and 10 μL of ADP-Glo™ Max Detection Reagent was added. The plate was sealed with a foil plate seal and shaken on a horizontal plate shaker at 450 rpm at room temperature for 2 minutes. The plate was then removed from the plate shaker and incubated at room temperature for 60 minutes. The plate was centrifuged for 15 seconds at 1109×rcf and the luminescence read on an EnspireAlpha plate reader (PerkinElmer, Waltham, Mass.).
The ADP standard curve was used to determine the concentration of ADP in sample wells in the presence or absence of substrate. Concentrations were determined by performing a non-linear 4 parameter logistic on the X=log(X) transformed ADP standard luminescence values. […] Where the background concentration of ADP in the absence of substrate was calculable the average of those values were subtracted from the calculated ADP concentration in the substrate incubated wells. Activity knock out was calculated by percentage activity relative to purified wild-type protein at the same concentration.
On to B1, for which the “AVG percent activity relative to purified wild-type protein” value stood at 0.3%.

On to B2, for which the “AVG percent activity relative to purified wild-type protein” value is on record as 1.8%.

As for B3, the “AVG percent activity relative to purified wild-type protein” value worked out at 0.4%.

Turning to B4, the “AVG percent activity relative to purified wild-type protein” value worked out at 1.5%.

With B5, the “AVG percent activity relative to purified wild-type protein” value is 1.7%.

B6: the “AVG percent activity relative to purified wild-type protein” value was 1.9%.

As for B7, the “AVG percent activity relative to purified wild-type protein” value is 0.9%.

B8: the “AVG percent activity relative to purified wild-type protein” value is on record as 1.2%.

Regarding B9, the “AVG percent activity relative to purified wild-type protein” value is listed as 2.2%.

With B10, the “AVG percent activity relative to purified wild-type protein” value was found to be 1.2%.

For B11, the “AVG percent activity relative to purified wild-type protein” value is listed as 0.2%.

Turning to B12, the “AVG percent activity relative to purified wild-type protein” value came out at 0.9%.

In the next data set the test system is Pancreatin.
Assay: not given
It is filed as in vitro ADME, Porcine.
Conditions: not given
The protocol: Control samples were protease-free.
Analyses were performed using an Agilent 1100 series system.
Consider B13, for which the “Free Leu (μM) at 120 min time point of Pancreatin digest” value (“Free Leu (μM) at 120 min time point” below) is 1030.8 µM.

On to B14, for which the “Free Leu (μM) at 120 min time point” value was 598.1 µM.

As to B15, the “Free Leu (μM) at 120 min time point” value came out at 763.5 µM.

System in a further data set: not listed separately
Kind of data set: Intact half-life during simulated gastric fluid (SGF) digestion. Particulars: SGF pH 1.5, pepsin:polypeptide 1:20 w/w, 37° C.; intact protein.
For B13, the “SGF Half-life (t½)” value is 0.1 min.

The same data set, now with this note: native and modified forms of SEQID-00363, gel electrophoresis.
On to B14, for which the “SGF Half-life (t½)” value is 20.4 min.

As to B15, the “SGF Half-life (t½)” value was 20.4 min.
